B1: WH2 peptide (peptide)
peptide: QCSDIQKQLFMEDREATPQEQHLLKTRAA
notes: XopR of Xcc, WH2-like motif without the extended helix; source: synthetic peptide (GL Biochem)
B2: HH peptide (peptide)
peptide: SLRRLDLQLEEITRQCSDIQKQLFMEDRE
notes: XopR of Xcc, HH motif (extended helix and WH2 alpha-helix); also called CC; CC peptide; source: synthetic peptide (GL Biochem)
B3: MBP-HH-msfGFP (domain or fragment)
chain: SLRRLDLQLEEITRQCSDIQKQLFMEDRE
notes: XopR of Xcc, HH motif; also called chimeric protein HH; source: E. coli BL21 (DE3) Rosetta, purified; not shown: MBP, N-terminal, kept; msfGFP, C-terminal, kept
B4: Xcc XopR-FL (aa 1-411) (natural protein)
chain: MRLSQLFNSRHRVAPEPHGANPNKTTPLIPGASPQHPLSQAPKSTTSQGASKSHRGMLASARKSLASLRKQLPLTCMGSSPTLETVESPPAHTAAVTPGRTQQQHGTQARVDQRWQPPVPNATDHERVQRPQPQPQQTPPTRQSMSVPPKPARAQQLHGPQRPVDPRMQPPIPERMRRDEGQPPQHDKPASPPVPITPAQSSLPSPRPQPGRQPSLRRLDLQLEEITRQCSDIQKQLFMEDREATPQEQHLLKTRAALIAWRNEVRDSQLEALLVALAPMEDIRAPRTTSSGLAMVQMDAMQHNRREVLKARRKSVDRAALARNYARAQRRLESLKQGDAPKEQIRRLQRMMQGYQNMLALEQIVRSTDDQLERLGAPRLMSGIPTTAEQRRQSFEKERDAHQEAIDNGYY
notes: type III effector XopR of Xanthomonas campestris pv. campestris (Xcc) strain 8004, aa 1-411; The methods list a C-terminal His6-Flag form and a C-terminal mRuby2-His6-Flag form; also called full-length XopR; XopR full-length; source: E. coli BL21 (DE3) Rosetta, purified (HisTrap, gel filtration)
B5: EHWH2 peptide (peptide)
peptide: SLRRLDLQLEEITRQCSDIQKQLFMEDREATPQEQHLLKTRAA
notes: XopR of Xcc, extended helix plus WH2-like motif; also called CCWH2; source: synthetic peptide (GL Biochem)
B6: MBP-EHWH2-msfGFP (domain or fragment)
chain: B5 peptide
notes: XopR of Xcc, EHWH2 stretch; also called chimeric protein EHWH2; source: E. coli BL21 (DE3) Rosetta, purified; not shown: MBP, N-terminal, kept; msfGFP, C-terminal, kept

Key:
[1] = target: G-actin (monomeric Ca2+-ATP-actin from rabbit skeleton muscle) (rabbit, UniProt P68135 1-377); experiment: MST; peptides serially diluted and titrated into 10 uM LatB-actin; 50 mM Tris pH 7.4, 150 mM NaCl, 0.05% Tween 20; 22 °C; called label-free in the results; conditions: both partners purified
[2] = target: F-actin (filaments assembled from rabbit skeleton muscle actin) (rabbit, UniProt P68135 1-377); experiment: co-sedimentation; high speed (100,000 x g, 20 min, 25 °C); 2 uM F-actin with a range of concentrations of the MBP-msfGFP fusion; SDS-PAGE; Hill fit; conditions: both partners purified
[3] = target: the molecule itself; experiment: SEC; Superdex 200 Increase 10/300, 150 mM NaCl, against protein standards

| Binder | Kd [1] | Kd [2] | also measured |
| --- | --- | --- | --- |
| B1 | > 100 µM |  |  |
| B2 | 73.9 ± 63 µM |  |  |
| B3 |  | 1270 ± 50 nM |  |
| B4 |  |  | stoichiometry N [3]: 3 |
| B5 | 16.5 ± 4.53 µM |  |  |
| B6 |  | 1000 ± 60 nM |  |
